Assay results from patent US20200087373A1 (UNIVERSITY OF COPENHAGEN, published 2020).
Ends that are not written are not given here. * marks the point of attachment. Palmitoyl = CCCCCCCCCCCCCCCC(=O)*; Lauroyl = CCCCCCCCCCCC(=O)*

B1: AT101 [hGIP(3-30)NH2-C12/3] (peptide)
peptide: Lauroyl-EGTFISDYSIAMDKIHQQDFVNWLLAQK-NH2
B2: AT107 [hGIP(3-30)NH2[T5W; D15E; H18A]-C16/16] (peptide)
peptide: EGWFISDYSIAMEK(Palmitoyl)IAQQDFVNWLLAQK-NH2
modifications: N-terminus assumed
SMILES: CCCCCCCCCCCCCCCC(=O)NCCCC[C@H](NC(=O)[C@H](CCC(=O)O)NC(=O)[C@H](CCSC)NC(=O)[C@H](C)NC(=O)[C@@H](NC(=O)[C@H](CO)NC(=O)[C@H](Cc1ccc(O)cc1)NC(=O)[C@H](CC(=O)O)NC(=O)[C@H](CO)NC(=O)[C@@H](NC(=O)[C@H](Cc1ccccc1)NC(=O)[C@H](Cc1c[nH]c2ccccc12)NC(=O)CNC(=O)[C@@H](N)CCC(=O)O)[C@@H](C)CC)[C@@H](C)CC)C(=O)N[C@H](C(=O)N[C@@H](C)C(=O)N[C@@H](CCC(N)=O)C(=O)N[C@@H](CCC(N)=O)C(=O)N[C@@H](CC(=O)O)C(=O)N[C@@H](Cc1ccccc1)C(=O)N[C@H](C(=O)N[C@@H](CC(N)=O)C(=O)N[C@@H](Cc1c[nH]c2ccccc12)C(=O)N[C@@H](CC(C)C)C(=O)N[C@@H](CC(C)C)C(=O)N[C@@H](C)C(=O)N[C@@H](CCC(N)=O)C(=O)N[C@@H](CCCCN)C(N)=O)C(C)C)[C@@H](C)CC
B3: AT144 [hGIP(3-30)NH2[K16R; H18K; K30R]-C16/18] (peptide)
peptide: EGTFISDYSIAMDRIK(Palmitoyl)QQDFVNWLLAQR-NH2
modifications: N-terminus assumed
SMILES: CCCCCCCCCCCCCCCC(=O)NCCCC[C@H](NC(=O)[C@@H](NC(=O)[C@H](CCCNC(=N)N)NC(=O)[C@H](CC(=O)O)NC(=O)[C@H](CCSC)NC(=O)[C@H](C)NC(=O)[C@@H](NC(=O)[C@H](CO)NC(=O)[C@H](Cc1ccc(O)cc1)NC(=O)[C@H](CC(=O)O)NC(=O)[C@H](CO)NC(=O)[C@@H](NC(=O)[C@H](Cc1ccccc1)NC(=O)[C@@H](NC(=O)CNC(=O)[C@@H](N)CCC(=O)O)[C@@H](C)O)[C@@H](C)CC)[C@@H](C)CC)[C@@H](C)CC)C(=O)N[C@@H](CCC(N)=O)C(=O)N[C@@H](CCC(N)=O)C(=O)N[C@@H](CC(=O)O)C(=O)N[C@@H](Cc1ccccc1)C(=O)N[C@H](C(=O)N[C@@H](CC(N)=O)C(=O)N[C@@H](Cc1c[nH]c2ccccc12)C(=O)N[C@@H](CC(C)C)C(=O)N[C@@H](CC(C)C)C(=O)N[C@@H](C)C(=O)N[C@@H](CCC(N)=O)C(=O)N[C@@H](CCCNC(=N)N)C(N)=O)C(C)C
B4: AT153 [hGIP(3-30)NH2[H18R; K30R]-C12/16] (peptide)
peptide: EGTFISDYSIAMDK(Lauroyl)IRQQDFVNWLLAQR-NH2
modifications: N-terminus assumed
SMILES: CCCCCCCCCCCC(=O)NCCCC[C@H](NC(=O)[C@H](CC(=O)O)NC(=O)[C@H](CCSC)NC(=O)[C@H](C)NC(=O)[C@@H](NC(=O)[C@H](CO)NC(=O)[C@H](Cc1ccc(O)cc1)NC(=O)[C@H](CC(=O)O)NC(=O)[C@H](CO)NC(=O)[C@@H](NC(=O)[C@H](Cc1ccccc1)NC(=O)[C@@H](NC(=O)CNC(=O)[C@@H](N)CCC(=O)O)[C@@H](C)O)[C@@H](C)CC)[C@@H](C)CC)C(=O)N[C@H](C(=O)N[C@@H](CCCNC(=N)N)C(=O)N[C@@H](CCC(N)=O)C(=O)N[C@@H](CCC(N)=O)C(=O)N[C@@H](CC(=O)O)C(=O)N[C@@H](Cc1ccccc1)C(=O)N[C@H](C(=O)N[C@@H](CC(N)=O)C(=O)N[C@@H](Cc1c[nH]c2ccccc12)C(=O)N[C@@H](CC(C)C)C(=O)N[C@@H](CC(C)C)C(=O)N[C@@H](C)C(=O)N[C@@H](CCC(N)=O)C(=O)N[C@@H](CCCNC(=N)N)C(N)=O)C(C)C)[C@@H](C)CC
B5: AT130 [hGIP(3-30)NH2[D15E; H18A]-C12/30] (peptide)
peptide: EGTFISDYSIAMEKIAQQDFVNWLLAQK(C12 fatty acyl)-NH2
B6: AT143 [hGIP(3-30)NH2[M14L; H18K]-C16/18] (peptide)
peptide: EGTFISDYSIALDKIK(Palmitoyl)QQDFVNWLLAQK-NH2
modifications: N-terminus assumed
SMILES: CCCCCCCCCCCCCCCC(=O)NCCCC[C@H](NC(=O)[C@@H](NC(=O)[C@H](CCCCN)NC(=O)[C@H](CC(=O)O)NC(=O)[C@H](CC(C)C)NC(=O)[C@H](C)NC(=O)[C@@H](NC(=O)[C@H](CO)NC(=O)[C@H](Cc1ccc(O)cc1)NC(=O)[C@H](CC(=O)O)NC(=O)[C@H](CO)NC(=O)[C@@H](NC(=O)[C@H](Cc1ccccc1)NC(=O)[C@@H](NC(=O)CNC(=O)[C@@H](N)CCC(=O)O)[C@@H](C)O)[C@@H](C)CC)[C@@H](C)CC)[C@@H](C)CC)C(=O)N[C@@H](CCC(N)=O)C(=O)N[C@@H](CCC(N)=O)C(=O)N[C@@H](CC(=O)O)C(=O)N[C@@H](Cc1ccccc1)C(=O)N[C@H](C(=O)N[C@@H](CC(N)=O)C(=O)N[C@@H](Cc1c[nH]c2ccccc12)C(=O)N[C@@H](CC(C)C)C(=O)N[C@@H](CC(C)C)C(=O)N[C@@H](C)C(=O)N[C@@H](CCC(N)=O)C(=O)N[C@@H](CCCCN)C(N)=O)C(C)C
B7: AT131 [hGIP(3-30)NH2[D15E; H18A]-C16/16] (peptide)
peptide: EGTFISDYSIAMEK(Palmitoyl)IAQQDFVNWLLAQK-NH2
modifications: N-terminus assumed
SMILES: CCCCCCCCCCCCCCCC(=O)NCCCC[C@H](NC(=O)[C@H](CCC(=O)O)NC(=O)[C@H](CCSC)NC(=O)[C@H](C)NC(=O)[C@@H](NC(=O)[C@H](CO)NC(=O)[C@H](Cc1ccc(O)cc1)NC(=O)[C@H](CC(=O)O)NC(=O)[C@H](CO)NC(=O)[C@@H](NC(=O)[C@H](Cc1ccccc1)NC(=O)[C@@H](NC(=O)CNC(=O)[C@@H](N)CCC(=O)O)[C@@H](C)O)[C@@H](C)CC)[C@@H](C)CC)C(=O)N[C@H](C(=O)N[C@@H](C)C(=O)N[C@@H](CCC(N)=O)C(=O)N[C@@H](CCC(N)=O)C(=O)N[C@@H](CC(=O)O)C(=O)N[C@@H](Cc1ccccc1)C(=O)N[C@H](C(=O)N[C@@H](CC(N)=O)C(=O)N[C@@H](Cc1c[nH]c2ccccc12)C(=O)N[C@@H](CC(C)C)C(=O)N[C@@H](CC(C)C)C(=O)N[C@@H](C)C(=O)N[C@@H](CCC(N)=O)C(=O)N[C@@H](CCCCN)C(N)=O)C(C)C)[C@@H](C)CC
B8: AT145 [hGIP(5-30)NH2[H18K]-C16/18] (peptide)
peptide: TFISDYSIAMDKIK(Palmitoyl)QQDFVNWLLAQK-NH2
modifications: N-terminus assumed
SMILES: CCCCCCCCCCCCCCCC(=O)NCCCC[C@H](NC(=O)[C@@H](NC(=O)[C@H](CCCCN)NC(=O)[C@H](CC(=O)O)NC(=O)[C@H](CCSC)NC(=O)[C@H](C)NC(=O)[C@@H](NC(=O)[C@H](CO)NC(=O)[C@H](Cc1ccc(O)cc1)NC(=O)[C@H](CC(=O)O)NC(=O)[C@H](CO)NC(=O)[C@@H](NC(=O)[C@H](Cc1ccccc1)NC(=O)[C@@H](N)[C@@H](C)O)[C@@H](C)CC)[C@@H](C)CC)[C@@H](C)CC)C(=O)N[C@@H](CCC(N)=O)C(=O)N[C@@H](CCC(N)=O)C(=O)N[C@@H](CC(=O)O)C(=O)N[C@@H](Cc1ccccc1)C(=O)N[C@H](C(=O)N[C@@H](CC(N)=O)C(=O)N[C@@H](Cc1c[nH]c2ccccc12)C(=O)N[C@@H](CC(C)C)C(=O)N[C@@H](CC(C)C)C(=O)N[C@@H](C)C(=O)N[C@@H](CCC(N)=O)C(=O)N[C@@H](CCCCN)C(N)=O)C(C)C
B9: hGIP(3-30)NH2 (peptide)
peptide: EGTFISDYSIAMDKIHQQDFVNWLLAQK-NH2
B10: AT103 [hGIP(3-30)NH2-C12/30] (peptide)
peptide: EGTFISDYSIAMDKIHQQDFVNWLLAQK(Lauroyl)-NH2
B11: AT101 [hGIP(3-30)NH2-C12/3] (peptide)
peptide: Lauroyl-EGTFISDYSIAMDKIHQQDFVNWLLAQK-NH2
B12: AT104 [hGIP(3-30)NH2-C16/3] (peptide)
peptide: Palmitoyl-EGTFISDYSIAMDKIHQQDFVNWLLAQK-NH2
B13: AT102 [hGIP(3-30)NH2-C12/16] (peptide)
peptide: EGTFISDYSIAMDK(Lauroyl)IHQQDFVNWLLAQK-NH2

target: T1, human GIP receptor (human, UniProt P48546 22-466); test: 125I-hGIP competition binding, COS-7 cells expressing hGIPR;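 also: nonspecific binding taken as radioligand bound by untransfected cells, binding buffer with or without 2% HSA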
T1 construct: whole, on cells; also called hGIPR
T1 sequence (looked up): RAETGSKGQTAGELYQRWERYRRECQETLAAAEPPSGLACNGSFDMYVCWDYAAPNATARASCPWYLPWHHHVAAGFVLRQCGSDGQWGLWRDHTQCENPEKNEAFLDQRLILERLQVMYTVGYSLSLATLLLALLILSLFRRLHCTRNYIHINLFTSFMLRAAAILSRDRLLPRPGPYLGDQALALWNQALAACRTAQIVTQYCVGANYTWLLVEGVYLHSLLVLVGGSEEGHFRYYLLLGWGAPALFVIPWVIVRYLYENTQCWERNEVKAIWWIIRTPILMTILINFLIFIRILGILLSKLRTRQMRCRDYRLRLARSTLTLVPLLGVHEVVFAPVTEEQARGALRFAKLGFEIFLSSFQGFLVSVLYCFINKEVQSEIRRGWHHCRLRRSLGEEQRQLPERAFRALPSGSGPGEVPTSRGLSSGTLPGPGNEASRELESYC
Protocol: After incubation, the cells were washed twice in ice-cold binding buffer (+/−2% HSA) and lysed using 200 mM NaOH with 1% SDS for 30 min. Nonspecific binding was determined as the binding of radioactive ligand to untransfected cells.

Binder	IC50 [nM]	log IC50 [log M]
B1	9.9	-8
B2	5220	-5.3
B3	297	-6.53
B4	316	-7
B5	1210	-5.9
B6	80	–
B7	6510	-5.2
B8	155	-6.8

target: T2, human GIP receptor (human, UniProt P48546 22-466); test: cell-based or functional assay
T2 sequence (looked up): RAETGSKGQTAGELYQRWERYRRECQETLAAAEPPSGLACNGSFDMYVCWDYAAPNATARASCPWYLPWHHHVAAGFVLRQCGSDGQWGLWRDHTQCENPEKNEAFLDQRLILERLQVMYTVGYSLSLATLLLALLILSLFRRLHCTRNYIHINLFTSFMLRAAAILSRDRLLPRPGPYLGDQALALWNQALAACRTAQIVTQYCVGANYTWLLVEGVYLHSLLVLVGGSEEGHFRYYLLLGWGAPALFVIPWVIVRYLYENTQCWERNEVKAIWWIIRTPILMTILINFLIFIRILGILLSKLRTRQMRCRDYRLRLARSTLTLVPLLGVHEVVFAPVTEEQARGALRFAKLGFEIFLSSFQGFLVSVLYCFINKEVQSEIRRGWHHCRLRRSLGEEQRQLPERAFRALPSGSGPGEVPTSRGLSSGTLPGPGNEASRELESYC

Binder	cAMP antagonism, log (IC50) [log M]	cAMP antagonism, nM (IC50) [nM]	cAMP agonism, EC50 (log) [log M]	cAMP agonism, Emax [%]	cAMP agonism, nM (EC50) [nM]
B9	-7.2	65	–	–	–
B10	-6.9	121	-5.3	7	4880
B11	–	–	-9.1	62	0.7
B12	–	–	-8.6	81	2.4
B13	–	–	-9.1	66	0.7
